The results in this text go back to article PMC8550936 (2021).

This assay has as its target Venezuelan equine encephalitis virus (VEEV) virus-like particles (Venezuelan equine encephalitis virus, …, UniProt P09592 813-1254). The assay is described as follows: SPR.

B1: LDLRAD3(D1), cleaved monomeric ectodomain of mouse low-density lipoprotein receptor class A domain-containing 3, domain 1 (domain or fragment)
chain: not shown
What is called Kd is the constant that tells how readily two partners part at equilibrium. A higher Kd goes with weaker binding. Regarding B1, the affinity, expressed as Kd, was 58.2 nM.
